According to patent publication US20200150118A1:

Molecular target: T1, S100A9 (alarmin) in autologous bone marrow plasma of MDS patients (human) (UniProt P06702)
T1 sequence (looked up): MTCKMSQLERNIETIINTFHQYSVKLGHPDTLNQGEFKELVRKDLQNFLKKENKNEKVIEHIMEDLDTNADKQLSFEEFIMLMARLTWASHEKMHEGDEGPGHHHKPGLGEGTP
Test: cell-based or functional assay

S100A9 high-affinity chimeric (CD33-IgG1) decoy receptor (from UniProt P20138 18-259) (Fc fusion)
reduction of the fraction of pyroptotic cells, CD33+ cells (MDS BM-MNC in autologous BM plasma, flow cytometry): 68%
reduction of the fraction of pyroptotic cells, CD71+ cells (MDS BM-MNC in autologous BM plasma, flow cytometry): 64%
reduction of the fraction of pyroptotic cells, progenitor cells (MDS BM-MNC in autologous BM plasma, flow cytometry): 23%
reduction of the fraction of pyroptotic cells, stem cells (MDS BM-MNC in autologous BM plasma, flow cytometry): 44%
